Test system: MS2 coat protein
Assay: apparent KD of MS2 coat protein; designed switch direction (-1 OFF switch, 1 ON switch): -1; higher = weaker reporter binding
In short: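 Designed RNA switches sharing common flanks were transcribed on Illumina chips by stalled E. coli RNA polymerase. They were titrated with SNAP-549-labelled MS2 coat protein, from 0.7 or 1.5 nM doubling to 3 µM, in Tris-HCl pH 7.5 buffer with KCl, MgCl2, BSA, DTT, tRNA and Tween-20. Titrations ran without input, with 200 uM small-molecule ligand, or with an oligonucleotide input. The apparent KD of each design is the median over its clusters, after curve-fitting of normalised cluster fluorescence.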

[1] = Eterna round: R95, input ligand: FMN 200 uM
[2] = Eterna round: R95, input ligand: microRNA oligo, concentration not stated
[3] = Eterna round: R95, input ligand: none
[4] = input ligand: microRNA oligo, concentration not stated

| Sequence | apparent KD of MS2 coat protein [1] [nM] | apparent KD of MS2 coat protein [2] [nM] | apparent KD of MS2 coat protein [3] [nM] | apparent KD of MS2 coat protein (input ligand: FMN 200 uM) [nM] | apparent KD of MS2 coat protein (input ligand: none) [nM] | apparent KD of MS2 coat protein [4] [nM] |
| --- | --- | --- | --- | --- | --- | --- |
| GGUCUGCGAGGAUAUACAUGAGGAUCACCCAUGUGAGAGAUACUAGUGAGGUCGAUUGGUAGAAGGCGCGGACG [JL-ex3-2.03 salish99 mod] (puzzle: Exclusion 3) | 13.1 | 124 | 115 | – | – | – |
| UAACUACAUGAGGAUCACCCAUGUCAGGAUAUGCCGUUAAAUUAACAUCAACAUACGGGUAGAAGGGACAACGU [1st #3] (Eterna round: R97, puzzle: Exclusion 1) | – | – | – | 31.5 | 29.8 | – |
| UACCUAAUGGGUGUUUCUCACAUGAGGAUCACCCAUGUCACUAGCUUUUUGCUCAUCUUAUCGAAACACCCUUAGUC [Birerage] (puzzle: Sensor v3, turn-off variant 1) | 21.3 | 10.2 | 20.8 | – | – | – |
| UAUUAUCAAGCUUGAUCCCACAUGAGGAUCACCCAUGUGCUCGUCUUAUUUCUGUCCUUAUUGUUCUCUCGUCUAAU [JR_STOV1_v2_Sub097] (Eterna round: R97, puzzle: Sensor, turn-off variant 1) | – | – | – | 80.2 | 94.1 | – |
| CGUAAGUGAGGAUAUCGUAGAGGAGACAUGAGGAUCACCCAUGUGUCAAGCGGUCCCGAAUGAGAAGGCACUGGUU [EX5 B.25] (Eterna round: R97, puzzle: Exclusion 5) | – | – | – | 21.5 | 20.3 | – |
| UGGAGAUAUAAGGAUAUAUUAGGAGGAGAGGAAAUAGAAGGUGUAACAUGAGGAUCACCCAUGUACCUCAUGUA [Default title] (Eterna round: R97, puzzle: Exclusion 6) | – | – | – | 693 | 985 | – |
| CACGUGAUUGGGCUCAUUAACAUGAGGAUCACCCAUGUGUGUGUUUUAGGAUGCCCACAAGCUUUUUCGCCGUCUAG [Eternabot (L1) Solution 3] (Eterna round: R97, puzzle: Sensor, turn-off variant 1) | – | – | – | 51 | 64.8 | – |
| GGCAUAAUGUAGGAUAUCGUAAUGGAAACAUUACGAGAAGGGCAAACAUGAGGAUCACCCAUGUUCCUUAAGCC [Mat - Exclusion 6 - Eli Mod - D70] (puzzle: Exclusion 6) | 18.7 | 14.2 | 15.4 | – | – | – |
| GUUAACGUAGGAUAUUAGUACAUGCACAUGAGGAUCACCCAUGUUUAGUGGGUCUAGGAAUAAGAAGGGCGAAGAA [EX5 #23] (Eterna round: R97, puzzle: Exclusion 5) | – | – | – | 170 | 309 | – |
| CAUAAUGCAGGAUAUACCAAAUGGCAGUGAAUGCGUGCGCAACAUGAGGAUCACCCAUGUAGAAGGGCACAAGA [Eternabot (Original) Solution 27] (Eterna round: R97, puzzle: Exclusion 2) | – | – | – | 18 | 13.5 | – |
| ACAAGCUUGUAAUCAUUUAACAUGAGGAUCACCCAUGUAAAUGGAAGAACCAAUUUGAUAUGAUUUACUCGUCUUAU [JR_STOV1_Sub009] (Eterna round: R97, puzzle: Sensor, turn-off variant 1) | – | – | – | 257 | 267 | – |
| AGCUAGUCAGGAUAUACAAACAUGUCAAAAGACGUGAAGGGACAUGAGGAUCACCCAUGUAGAAGGGACUAGCA [Web Mod 74% 2] (Eterna round: R96, puzzle: Exclusion 2) | – | – | – | 304 | 49.2 | 43.1 |
| AUGUGCACGCUGCGAUCCUACAUGAGGAUCACCCAUGUGGUCUGGUGGCGUGGGUCACCGGACUUGGCUCGUCUUGU [salish99_S_TOV1_R5_081] (Eterna round: R97, puzzle: Sensor, turn-off variant 1) | – | – | – | 62.1 | 77.8 | – |
| CUUUAGCUAGGAUAUACAUGAGGAUCACCCAUGUUAGCGGUCCAUUGGGCCGCGGGUUGUAGAAGGAGCAUUAA [Azabeso] (puzzle: Exclusion 3) | – | 25.3 | – | – | – | – |
| CCGGAAUUACAGGAUAUAGGAGUCGAUAGACACCUAGAAGGGUAGACAUGAGGAUCACCCAUGUGUCCUACCGG [Fiskers Ex 6 - 85] (puzzle: Exclusion 6) | – | 176 | – | – | – | – |
| UUUUUAAAUGAAGGAUAUACUUAACAUGAGGAUCACCCAUGUGGUGUUGUGAGUGAGUGAGUUUAGUAGAAGGUCAAUUCUUUU [JMF's solution 86] (Eterna round: R96, puzzle: Exclusion NG 2) | – | – | – | 619 | 334 | 300 |
| CAUGGAACAUAGGAUAUCUCGCGGCUAGACUGCAGAGAAGGAUGUACAUGAGGAUCACCCAUGUAUGAUCCAGU [Leisceza] (puzzle: Exclusion 6) | 29.3 | 15.8 | 17.3 | – | – | – |
